Assays:
[1] = biological target: 3-hydroxy-3-methylglutaryl coenzyme A reductase (HMGCoAR), catalytic domain; assay: cell-based or functional assay
[2] = biological target: T1, proprotein convertase subtilisin/kexin type-9 (PCSK9), His-tagged (UniProt Q8NBP7 31-692); assay: ELISA; CircuLex in vitro PCSK9-LDLR binding assay kit; plate pre-coated with recombinant LDLR-AB domain; peptide (0.1-100 uM) in reaction buffer, then His-tagged PCSK9 added; 2 h at room temperature; detected with biotinylated anti-His-tag antibody, HRP-streptavidin and TMB, absorbance at 450 nm; settings: both partners purified
T1 construct: PCSK9, recombinant His-tagged protein of the kit; The functional rows use this molecule; also called His-tagged PCSK9
T1 sequence (Q8NBP7 31-692): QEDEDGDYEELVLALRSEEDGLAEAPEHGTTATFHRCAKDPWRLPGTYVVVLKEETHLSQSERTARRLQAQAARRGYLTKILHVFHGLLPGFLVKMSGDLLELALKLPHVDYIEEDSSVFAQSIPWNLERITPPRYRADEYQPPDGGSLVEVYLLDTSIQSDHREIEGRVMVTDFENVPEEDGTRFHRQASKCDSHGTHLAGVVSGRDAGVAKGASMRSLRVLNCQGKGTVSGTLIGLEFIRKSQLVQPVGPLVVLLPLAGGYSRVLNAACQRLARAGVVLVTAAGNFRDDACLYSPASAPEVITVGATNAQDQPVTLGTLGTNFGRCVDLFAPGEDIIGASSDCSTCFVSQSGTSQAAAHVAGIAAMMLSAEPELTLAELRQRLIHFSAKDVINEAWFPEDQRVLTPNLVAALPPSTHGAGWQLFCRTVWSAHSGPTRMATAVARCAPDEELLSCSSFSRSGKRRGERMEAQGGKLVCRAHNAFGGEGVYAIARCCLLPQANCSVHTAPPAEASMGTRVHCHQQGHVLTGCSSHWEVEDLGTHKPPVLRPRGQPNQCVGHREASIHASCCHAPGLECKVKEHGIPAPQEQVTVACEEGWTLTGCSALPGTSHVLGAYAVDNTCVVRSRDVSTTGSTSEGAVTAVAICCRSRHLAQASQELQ

3-hydroxy-3-methylglutaryl coenzyme A reductase (HMGCoAR), catalytic domain, sequence (P04035 whole entry, the tested form may be a part): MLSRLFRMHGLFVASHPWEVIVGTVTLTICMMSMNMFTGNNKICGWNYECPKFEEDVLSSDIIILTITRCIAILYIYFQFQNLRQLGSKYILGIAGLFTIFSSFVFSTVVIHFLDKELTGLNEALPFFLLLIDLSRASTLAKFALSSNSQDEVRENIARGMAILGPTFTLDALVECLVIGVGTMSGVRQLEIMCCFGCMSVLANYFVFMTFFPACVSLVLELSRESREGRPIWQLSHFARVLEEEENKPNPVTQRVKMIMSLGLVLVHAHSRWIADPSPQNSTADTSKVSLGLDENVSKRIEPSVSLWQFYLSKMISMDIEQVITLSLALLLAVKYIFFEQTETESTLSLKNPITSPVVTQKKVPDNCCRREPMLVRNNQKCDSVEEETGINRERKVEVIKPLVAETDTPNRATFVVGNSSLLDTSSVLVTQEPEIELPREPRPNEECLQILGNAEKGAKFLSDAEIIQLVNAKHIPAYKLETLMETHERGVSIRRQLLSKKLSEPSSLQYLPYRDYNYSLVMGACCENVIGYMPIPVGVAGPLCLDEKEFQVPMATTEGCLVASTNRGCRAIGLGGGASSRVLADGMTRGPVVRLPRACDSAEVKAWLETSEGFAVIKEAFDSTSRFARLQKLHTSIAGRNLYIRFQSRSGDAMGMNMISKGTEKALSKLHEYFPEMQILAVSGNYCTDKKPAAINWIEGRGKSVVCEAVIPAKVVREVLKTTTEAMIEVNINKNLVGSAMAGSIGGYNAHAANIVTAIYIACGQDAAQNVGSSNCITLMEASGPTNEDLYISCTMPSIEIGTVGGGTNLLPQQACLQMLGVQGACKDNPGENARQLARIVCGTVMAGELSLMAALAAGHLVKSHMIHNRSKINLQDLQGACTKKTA

in vitro HMGCoAR activity (NADPH oxidation, absorbance at 340 nm, 37 °C), peptide 10-500 µM; IC50 [1]	IC50 [2]	Binder
147 µM	1.3 µM	LILPKHSDAD (peptide from the peptic hydrolysate of lupin protein; also called parent peptide; source: synthetic peptide (GeneScript, >95% purity)) [lupin peptide P5 (LILPKHSDAD)]
175 µM	1.7 µM	LPKHSDAD (source: synthetic peptide (GeneScript, >95% purity)) [P5-met (LPKHSDAD), metabolite of lupin peptide P5]

From publication PMC8000724, “Trans-Epithelial Transport, Metabolism, and Biological Activity Assessment of the Multi-Target Lupin Peptide [sequence] (P5) and Its Metabolite [sequence] (P5-Met)” (Nutrients, 2021)
